In patent publication US20220372164A1 (CITY OF HOPE, published 2022):

Tests used:
truncated EGFR (EGFRt) [1] = molecular target: T1, truncated EGFR (EGFRt) (human, UniProt P00533 334-668); test: flow cytometry, titration of biotinylated soluble human FcγR1 + SA-PE on T cells
T1 construct: Expressed alone on T cells as the control without a CAR; also called huEGFRt; EGFRt marker

truncated EGFR (EGFRt) [2] = molecular target: T1, truncated EGFR (EGFRt); test: flow cytometry, biotinylated soluble FcγR + SA-PE on T cells
Experimental: Antibodies and Flow Cytometry. Fluorochrome-conjugated isotype controls, anti-CD3, anti-CD4, anti-CD8, anti-CD45 and streptavidin were obtained from BD Biosciences (San Jose, Calif.). Biotinylated anti-Fc was purchased from Jackson ImmunoResearch Laboratories, Inc. (West Grove, Pa.). Generation of biotinylated-cetuximab was previously described (Wang et al. 2011a). […] The percentage of immunofluorescent cells were analyzed by a FACScalibur system (BD Biosciences), and the percentage of cells in a region of analysis were calculated using FCS Express V3 (De Novo Software, CA, USA).
To determine the efficacy of the different mutations/deletion in the CAR to affect FcR binding, flow cytometric analysis was performed using various human and murine biotinylated soluble FcγRs, and PE-streptavidin (SA-PE) to detect the binding of the FcγRs to the different cell populations.

B1: biotinylated soluble human Fc gamma receptor 1 (receptor, UniProt P12314 16-288, looked up)
chain: QVDTTKAVITLQPPWVSVFQEETVTLHCEVLHLPGSSSTQWFLNGTATQTSTPSYRITSASVNDSGEYRCQRGLSGRSDPIQLEIHRGWLLLQVSSRVFTEGEPLALRCHAWKDKLVYNVLYYRNGKAFKFFHWNSNLTILKTNISHNGTYHCSGMGKHRYTSAGISVTVKELFPAPVLNASVTSPLLEGNLVTLSCETKLLLQRPGLQLYFSFYMGSKTLRGRNTSSEYQILTARREDSGLYWCEAATEDGNVLKRSPELELQVLGLQLPTP
modifications: biotinylated
notes: Bought reagent; also called huFcγR1; human FcγR1
**Q.** Does B1 bind (truncated EGFR (EGFRt) [1])?
**A.** no binding

B2: biotinylated soluble human FcγR2a (receptor, UniProt P12318 34-218, looked up)
chain: QAAAPPKAVLKLEPPWINVLQEDSVTLTCQGARSPESDSIQWFHNGNLIPTHTQPSYRFKANNNDSGEYTCQTGQTSLSDPVHLTVLSEWLVLQTPHLEFQEGETIMLRCHSWKDKPLVKVTFFQNGKSQKFSHLDPTFSIPQANHSHSGDYHCTGNIGYTLFSSKPVTITVQVPSMGSSSPMGI
modifications: biotinylated
notes: Bought reagent; also called huFcγR2a; Hu R2a
**Q.** Does B2 bind (truncated EGFR (EGFRt) [2])?
**A.** no binding

B3: biotinylated soluble human FcγR2b (receptor, UniProt P31994 43-217, looked up)
chain: TPAAPPKAVLKLEPQWINVLQEDSVTLTCRGTHSPESDSIQWFHNGNLIPTHTQPSYRFKANNNDSGEYTCQTGQTSLSDPVHLTVLSEWLVLQTPHLEFQEGETIVLRCHSWKDKPLVKVTFFQNGKSKKFSRSDPNFSIPQANHSHSGDYHCTGNIGYTLYSSKPVTITVQAP
modifications: biotinylated
notes: Bought reagent; also called huFcγR2b; Hu R2b
**Q.** Does B3 bind (truncated EGFR (EGFRt) [2])?
**A.** no binding

B4: biotinylated soluble murine FcγR1 (receptor, UniProt P26151 25-297, looked up)
chain: EVVNATKAVITLQPPWVSIFQKENVTLWCEGPHLPGDSSTQWFINGTAVQISTPSYSIPEASFQDSGEYRCQIGSSMPSDPVQLQIHNDWLLLQASRRVLTEGEPLALRCHGWKNKLVYNVVFYRNGKSFQFSSDSEVAILKTNLSHSGIYHCSGTGRHRYTSAGVSITVKELFTTPVLRASVSSPFPEGSLVTLNCETNLLLQRPGLQLHFSFYVGSKILEYRNTSSEYHIARAEREDAGFYWCEVATEDSSVLKRSPELELQVLGPQSSAP
modifications: biotinylated
notes: Bought reagent; also called muFcγR1; Mu FcγR1
**Q.** Does B4 bind (truncated EGFR (EGFRt) [2])?
**A.** no binding

B5: biotinylated soluble murine FcγR2b (receptor, UniProt P08101 30-207, looked up)
chain: THDLPKAVVKLEPPWIQVLKEDTVTLTCEGTHNPGNSSTQWFHNGRSIRSQVQASYTFKATVNDSGEYRCQMEQTRLSDPVDLGVISDWLLLQTPQLVFLEGETITLRCHSWRNKLLNRISFFHNEKSVRYHHYSSNFSIPKANHSHSGDYYCKGSLGRTLHQSKPVTITVQGPKSSR
modifications: biotinylated
notes: Bought reagent; also called muFcγR2b; Mu R2b
**Q.** Does B5 bind (truncated EGFR (EGFRt) [2])?
**A.** no binding
